Source: patent US20240101686A1
Read-outs that look alike come from different tables or passages of the source. Each block holds one substance with its values, some of them ahead of it.

What was measured:
[1] = target: human EGFRvIII on cells (human) (UniProt P00533)
Her2 protein (human) = Her2 protein (human) (UniProt P04626)
[2] = target: human EGFR-His-tagged fusion protein (human) (UniProt P00533)
[3] = target: human EGFR-His-tagged fusion protein (human) (UniProt P00533); remark: listed apart in the source
[4] = target: human EGFR on cells (human) (UniProt P00533)
[5] = target: human EGFR on cells (human) (UniProt P00533); remark: listed apart in the source
[6] = target: human EGFR on cells (human) (UniProt P00533); remark: listed apart in the source
[7] = target: human EGFR on cells (human) (UniProt P00533); remark: listed apart in the source
[8] = target: human EGFRvIII on cells (human) (UniProt P00533); experiment: FACS on CHO-K1-EGFRvIII 2G3 cells
[9] = target: human EGFR-His-tagged fusion protein (human) (UniProt P00533); remark: listed apart in the source
[10] = target: human EGFR on cells (human) (UniProt P00533); remark: listed apart in the source
[11] = target: monkey EGFR protein (commercial, SB, catalog number 90285-C08H) (monkey); experiment: ELISA, coated monkey EGFR protein, antibody 0.01 nM
[12] = target: monkey EGFR protein (commercial, SB, catalog number 90285-C08H) (monkey); experiment: ELISA, coated monkey EGFR protein, antibody 0.0001 nM
[13] = target: human EGFRvIII-His tag protein (extracellular domain Leu25-Ser378) (human) (UniProt P00533)
[14] = target: monkey EGFR protein (commercial, SB, catalog number 90285-C08H) (monkey); experiment: ELISA, coated monkey EGFR protein, antibody 1 nM
[15] = target: monkey EGFR protein (commercial, SB, catalog number 90285-C08H) (monkey); experiment: ELISA, coated monkey EGFR protein, antibody 0.001 nM
[16] = target: murine EGFR protein (murine) (UniProt Q01279)
[17] = target: human EGFRvIII-His tag protein (extracellular domain Leu25-Ser378) (human) (UniProt P00533); remark: listed apart in the source
[18] = target: human EGFRvIII-His tag protein (extracellular domain Leu25-Ser378) (human) (UniProt P00533); remark: listed apart in the source
[19] = target: murine EGFR protein (murine) (UniProt Q01279); remark: listed apart in the source
[20] = target: human EGFRvIII-His tag protein (extracellular domain Leu25-Ser378) (human) (UniProt P00533); remark: listed apart in the source
[21] = target: human EGFRvIII-His tag protein (extracellular domain Leu25-Ser378) (human) (UniProt P00533); remark: listed apart in the source
[22] = target: cynomolgus monkey EGFR on HEK293T-monkey EGFR cells (cynomolgus monkey); experiment: FACS, HEK293T-monkey EGFR cells
[23] = target: human EGFRvIII-His tag protein (extracellular domain Leu25-Ser378) (human) (UniProt P00533); remark: listed apart in the source
[24] = target: monkey EGFR protein (commercial, SB, catalog number 90285-C08H) (monkey); experiment: ELISA, coated monkey EGFR protein, antibody 10 nM
[25] = target: monkey EGFR protein (commercial, SB, catalog number 90285-C08H) (monkey); experiment: ELISA, coated monkey EGFR protein, antibody 0 nM (blank)
[26] = target: murine EGFR protein (murine) (UniProt Q01279); remark: listed apart in the source
[27] = target: murine EGFR protein (murine) (UniProt Q01279); remark: listed apart in the source
[28] = target: monkey EGFR protein (commercial, SB, catalog number 90285-C08H) (monkey); experiment: ELISA, coated monkey EGFR protein, antibody 0.1 nM
[29] = target: human EGFRvIII-His tag protein (extracellular domain Leu25-Ser378) (human) (UniProt P00533); remark: listed apart in the source
[30] = target: human EGFR endogenously expressed on A431 cells (human) (UniProt P00533)
[31] = target: murine EGFR protein (murine) (UniProt Q01279); remark: listed apart in the source
[32] = target: monkey EGFR protein (commercial, SB, catalog number 90285-C08H) (monkey); experiment: ELISA, coated monkey EGFR protein, antibody 100 nM
[33] = target: human EGFRvIII-His tag protein (extracellular domain Leu25-Ser378) (human) (UniProt P00533); remark: listed apart in the source
[34] = target: murine EGFR protein (murine) (UniProt Q01279); remark: listed apart in the source
[35] = target: murine EGFR protein (murine) (UniProt Q01279); remark: listed apart in the source
[36] = target: murine EGFR protein (murine) (UniProt Q01279); remark: listed apart in the source
[37] = target: cynomolgus monkey EGFR on HEK293T-monkey EGFR cells (cynomolgus monkey); experiment: FACS, HEK293T-monkey EGFR cells (specificity assay)

Average fluorescence intensity [1]: 35.4
OD450 (Her2 protein (human)): 0.21
OD450 [2]: 0.07
OD450 [3]: 0.05
Max MFI [4]: 159
Average fluorescence intensity [5]: 74
Average fluorescence intensity [6]: 1560
Average fluorescence intensity [7]: 1560
Average fluorescence intensity [8]: 35.4
OD450 [9]: 0.71
Average fluorescence intensity [10]: 1560
Substance: anti-hel-hIgG1 (antibody)

OD450 [11]: 0.19
OD450 [12]: 0.06
OD450 [13]: 0.09
OD450 [14]: 0.21
OD450 [15]: 0.09
OD450 [16]: 0.06
OD450 [17]: 0.6
OD450 [18]: 0.08
OD450 [19]: 1.16
OD450 [20]: 0.07
OD450 [21]: 0.22
Max MFI [22]: 240
OD450 [23]: 0.07
OD450 [24]: 0.13
OD450 [25]: 0.07
OD450 [26]: 0.06
OD450 [27]: 0.05
OD450 [28]: 0.09
OD450 [29]: 0.19
Max MFI [30]: 199
OD450 [31]: 0.05
OD450 [32]: 0.71
OD450 [33]: 0.13
OD450 [34]: 0.06
OD450 [35]: 0.12
OD450 [36]: 0.06
Max MFI [37]: 141
Substance: anti-hel-hIgG1 (negative control antibody against hen egg lysozyme)
